According to paper PMC4557296 (2015):

Molecular target: unlabelled HP1α (human, UniProt P45973 1-191)
Sequence (P45973 whole entry): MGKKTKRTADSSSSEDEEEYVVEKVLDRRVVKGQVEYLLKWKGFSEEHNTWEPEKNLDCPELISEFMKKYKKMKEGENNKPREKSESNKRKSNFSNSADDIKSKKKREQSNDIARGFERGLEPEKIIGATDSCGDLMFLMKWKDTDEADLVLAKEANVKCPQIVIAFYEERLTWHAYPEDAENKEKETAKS

- Kd: 7.57 µM
Binder: ARTKQTARKSTGGK (trimethyl-lysine at K9) [H3K9me3 1–14 peptide]
